Test results taken from article PMC13225215, “Kinetic properties of optogenetic site-specific DNA recombination by LiCre-loxP”.

B1: half loxP (1Y70/1Y71) (dsDNA)
DNA 1: CGGAATTCAGATCTATAACTTCGTATAATGTGTCTAGAGGATCCGC
DNA 2: GCGGATCCTCTAGACACATTATACGAAGTTATAGATCTGAATTCCG

Experiments:
[1] = biological target: LiCre (asLOV2-Cre chimera) (synthetic chimera (Avena sativa LOV2?)) (UniProt P06956); experiment: SPR; conditions: SPR (Biacore T200, SA chip): 20 mM Tris pH 7.4, 50 mM KCl, 150 mM NaCl, 10 mM MgCl2, 1 mM DTT, 0.05% P20; 25 C; 0.3125-10 nM protein; no blue light
Cre recombinase = Cre recombinase (UniProt P06956 1-343); experiment: SPR; KD1, first unit; global kinetic fit of half and full site data; 10 mM Mg2+; no blue light; SPR (Biacore T200, SA chip): 20 mM Tris pH 7.4, 50 mM KCl, 150 mM NaCl, 10 mM MgCl2, 1 mM DTT, 0.05% P20; 25 C; 0.3125-10 nM protein; no blue light; conditions: protein: recombinant; tags: N-terminal 6xHis; chain copies: 2; label: 5'-biotin on 1Y70; blunt

Row | Molecule | Kd [1] [pM] | Kd (Cre recombinase) [pM]
1 | CGGAATTCACAACTTCGTATAATGTATGCTATACGAAGTTATGGATCCGC (double strand) [full loxP (1Y68/1Y69)] | 6.1 | 
2 | CGGAATTCAGATCTATAACTTCGTATAATGTGTCTAGAGGATCCGC (double strand) [half loxP (1Y70/1Y71)] | 490 | 
3 | B1 |  | 1150
